Assay results published in patent US8129349B2, “Treatment of disease by inducing cell apoptosis” (The Regents of the University of California, priority 2000, dated 2012).
Substitutions are numbered along the chain they refer to. No end group written: not given here.

How the values were obtained:
procaspase 8 = procaspase 8 (Homo sapiens, UniProt Q14790); assay: Co-immunoprecipitation of purified recombinant procaspase 8 with recombinant C/EBPβ peptides; assay type: binding; set-up: 21 amino acid linker (vector-derived) (N); purchased Alexis Biochemicals 201-041-C005; details: peptides 200 μM, procaspase 8 0.12 μg, quantitated by densitometry
Description: (§1) FIG. 5 provides results showing the direct association of C/EBPβ-Glu^217 with procaspases 1 and 8. […] Enzyme activity was measured in the absence (control) or presence of C/EBPβ peptides (200 μM) for 2 h, using a procaspases 1 (1U) (not shown) and 8 (0.2 μg) activity assay. Values are presented as the mean±one half the range of duplicates. Panel C provides results for cells cultured on a collagen type I matrix and incubated with the indicated cell permeant, purified synthetic N-acetyl, C-aldehyde C/EBPβ tetra-peptides (10 μM) or with recombinant C/EBPβ-HA peptides as indicated, together with the Chariot reagent (Active Motif) for 4 h. Control cells were incubated without peptides (P<0.05 for all peptides containing Ala^217).
Purified recombinant C/EBPβ peptides, expressed as known in the art (See, Descombes et al., supra; and Buck et al. (1994), supra), and purified synthetic N-acetyl, C-aldehyde tetrapeptides (200 μM) (American Peptide Company) were assayed for their ability to inhibit the activity of purified human recombinant caspases 1 (catalogue # 201-056) and 8 (catalogue # 201-041-C005) (Alexis Biochemicals). The sequence of caspase 8 includes Ser217 through Asp479 cloned into an expression vector containing a 21 amino acid linker at the N-terminus. Thus, the prodomain (first 220 amino acids) is essentially missing. […] Caspase activity was determined by the release of the p-nitroaniline colorimetric (Alexis Biochemicals) substrate for caspase 1 (catalogue # 260-026) or 8 (catalogue # 260-045) within the linear part of the kinetic assay (Thornberry et al. (1997), supra; Stennicke and Salvesen, supra). […]
(§2) To delineate the role of C/EBPβ on the activation of procaspases 1 and 8, the self-activation of recombinant procaspases 1 and 8 was induced in vitro (Wilson et al., supra; Margolin et al., supra; and Earnshaw et al., supra), and the effect of purified recombinant C/EBPβ peptides, produced as described previously (Descombes et al., supra; and Buck et al., (1994), supra) on this process was determined. […]

procaspase 1 = target: T1, procaspase 1 (Homo sapiens, UniProt P29466); assay: Co-immunoprecipitation of purified recombinant procaspase 1 with recombinant C/EBPβ peptides; assay type: binding; details: peptides 200 μM, procaspase 1 0.6 U, quantitated by densitometry
T1 construct: purchased Alexis Biochemicals 201-056
T1 sequence (P29466 1-404): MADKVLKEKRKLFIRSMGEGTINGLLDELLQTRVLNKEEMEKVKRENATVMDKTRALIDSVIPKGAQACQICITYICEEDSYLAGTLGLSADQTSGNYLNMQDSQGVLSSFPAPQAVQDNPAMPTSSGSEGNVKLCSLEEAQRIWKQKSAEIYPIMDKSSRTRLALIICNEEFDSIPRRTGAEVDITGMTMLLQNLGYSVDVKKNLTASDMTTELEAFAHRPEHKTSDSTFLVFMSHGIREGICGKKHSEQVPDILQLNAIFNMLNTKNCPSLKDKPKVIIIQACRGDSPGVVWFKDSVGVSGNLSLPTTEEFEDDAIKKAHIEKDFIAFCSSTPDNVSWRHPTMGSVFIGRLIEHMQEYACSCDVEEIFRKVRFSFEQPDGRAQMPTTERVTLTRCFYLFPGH
Description: as §1
Purified recombinant C/EBPβ peptides, expressed as known in the art (See, Descombes et al., supra; and Buck et al. (1994), supra), and purified synthetic N-acetyl, C-aldehyde tetrapeptides (200 μM) (American Peptide Company) were assayed for their ability to inhibit the activity of purified human recombinant caspases 1 (catalogue # 201-056) and 8 (catalogue # 201-041-C005) (Alexis Biochemicals). The sequence of caspase 8 includes Ser217 through Asp479 cloned into an expression vector containing a 21 amino acid linker at the N-terminus. Thus, the prodomain (first 220 amino acids) is essentially missing. The fragment is cleaved at Asp385 and the active caspases are essentially identical to those identified in apoptotic cells (Stennicke and Salvesen, Meth. Enzymol., 322:91-100 (1997)). Caspase activity was determined by the release of the p-nitroaniline colorimetric (Alexis Biochemicals) substrate for caspase 1 (catalogue # 260-026) or 8 (catalogue # 260-045) within the linear part of the kinetic assay (Thornberry et al. (1997), supra; Stennicke and Salvesen, supra). Caspase 1 and 8 activity in cells was performed with colorimetric kits (catalogues # 850-211-K and 850-221-K) as described by the manufacturer (Alexis) (See also, Thornberry et al. (1997), supra). The caspase 8 inhibitor IETD was from Calbiochem (Catalogue # 218773).
as §2, with “determined. Consistent with the in vivo results described above, C/EBPβ-HA-Glu^217 and C/EBPβ 216-253-HA-Glu^217, but not C/EBPβ-HA-Ala^217, peptides associated with procaspases 1 and 8 (See, FIG. 5, Panel A).” for “determined.”

hepatic stellate cells = assay: Apoptosis of activated stellate cells transfected with C/EBPβ constructs, annexin-V-PE binding; assay type: cell-based, mouse; details: for Effect of expressed construct on apoptosis / survival of stellate cells: transfected cells on collagen type I matrix; for Rescue from induced apoptosis by expressed construct: apoptosis induced by dominant negative MEKK1, IκBα or RSK mutants or by lactacystin
Source text: FIG. 1 provides data showing that phosphorylation of C/EBPβ on Thr^217 is required for hepatic stellate cell survival. Panel A provides phosphopeptide maps of in vivo labeled endogenous C/EBPβ in day-4 quiescent and activated primary mouse stellate cells cultured from the time of isolation on EHS or collagen type I matrix, respectively. The arrow indicates the peptide containing Phospho-Thr^217 in activated cells. […] Panel B provides phosphopeptide maps of in vitro labeled C/EPBβ. Active p90RSK phosphorylated C/EPBβ, but not C/EBPβ-Ala^217 on Thr^217 in vitro (arrowheads). Panel C provides results for cells cultured on collagen type I transfected with MSV-C/EBPβ antisense (AS), MSV-C/EBPβ sense (S), or MSV-C/EBPβ-Ala^217 together with CMV-GFP (green fluorescent protein) and p90RSK (1 μg each), as indicated in the Figure. Four hours after transfection, annexin-V-PE binding to plasma membranes was determined. The values presented are the percentage of transfected cells (green) that were annexin-V-PE (+) (red) (P<0.05 for C/EBPβ AS, and C/EBPβ-Ala^217). Panel D provides results for cells transfected as in […] with vectors expressing dominant negative mutants for MEKK1, IκBα, or p90RSK, or treated with the proteasome inhibitor lactacystin (10 μM) (closed bars), and co-transfected with MSV-C/EBPβ-Glu^217 (1 μg each) (open bars) as indicated. Annexin-V-PE binding was determined as described for Panel A (P<0.05 for C/EBPβ-Glu^217). Panel E provides results for cells transfected as described for Panel C, with a dominant-negative p90RSK, treated with FAS (100 nM for 6 hours) or cultured in a serum-free medium for 6 hours (closed bars), and co-transfected with MSV-C/EBPβ-Glu^217 (1 μg each) (open bars), as indicated. Cell death was determined by nuclear staining with Hoechst 33342 (P<0.05 for C/EBPβ-Glu^217 in RSK mut and FAS-treated cells).
FIG. 4 provides results showing that C/EBPβ PThr^217 associates with procaspases 1 and 8, and inhibits their activation. Panel A provides schematic representations of C/EBPβ peptides. The activation (dotted bars), DNA binding (solid bars) and dimerization (hatched bars) domains are shown. […] Panel C provides results showing that C/EBPβ and procaspase 8 were detected in activated stellate cells isolated from C/EBPβ^+/+ mice by confocal microscopy using specific antibodies (Santa Cruz Biotechnology). Control C/EBPβ^−/− stellate cells were negative for C/EBPβ, positive for procaspase 8, and apoptotic. Panel D provides immunoblot results for MSV vectors expressing C/EBPβ-HA (hemagglutinin protein) peptides (0.3 μg) transfected into activated stellate cells. The expressed peptides were immunoprecipitated with anti-HA antibodies. C/EBPβ-PThr^217 was detected using a specific antibody, only in cells expressing wild-type C/EBPβ. […] RSK was associated with all C/EBPβ peptides. Neither C/EBPβ nor procaspases 1 and 8 were detected in C/EBPβ immunoprecipitates from cells expressing C/EBPβ AS. Reciprocal immunoprecipitations of procaspases and RSK confirmed these associations.
Adult male Sprague-Dawley rats and adult male C/EBPβ^+/+ and C/EBPβ^−/− (Screpanti et al., supra; and Buck et al., (1999), supra), C/EBPβ-Ala^217 and C/EBPβ-Asp^105 transgenic mice were used for the isolation of primary hepatic stellate cells (Houglum et al., supra). Primary hepatic stellate cells were isolated by collagenase/pronase perfusion and purified by a single step density Nycodenz gradient (Accurate Chemical & Scientific) as known in the art (See, Lee et al., (1995), supra). Cells were plated on type I collagen matrix (Becton Dickinson) or EHS matrix (Matrigel, Collaborative Biomedical Products). Cells were cultured with 10% fetal calf serum/10% fetal bovine serum and transfected with lipofectamine (GIBCO) for DNA vectors or with the Chariot reagent (Active Motif) for peptides (10 μM) as known in the art (See, Houglum et al., supra; and Morris et al., J. Biol. Chem., 274:24942-24946 (1999)). […]

procaspase 8, sequence (Q14790 217-479): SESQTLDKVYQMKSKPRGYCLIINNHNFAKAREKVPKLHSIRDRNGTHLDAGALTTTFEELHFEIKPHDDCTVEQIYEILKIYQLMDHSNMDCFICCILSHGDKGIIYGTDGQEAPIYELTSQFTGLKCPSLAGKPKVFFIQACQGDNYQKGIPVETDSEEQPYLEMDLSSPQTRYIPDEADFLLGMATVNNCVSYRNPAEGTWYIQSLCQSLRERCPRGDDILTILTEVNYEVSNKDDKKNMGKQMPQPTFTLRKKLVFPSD

## C/EBPβ216-253-HA-Glu^217: purified recombinant HA tagged C/EBPβ 216-253 peptide with Glu^217 (KEVDKLSDEYKMRRERNNIAVRKSRDKAKMRNLETQHK; also: HA tag (place not given here))
Procaspase 8
  Co-immunoprecipitation of procaspase 8, fold more than the Ala^217 peptides: ~12 fold
Procaspase 1
  Co-immunoprecipitation of procaspase 1, fold more than the Ala^217 peptides: about 7 fold

## C/EBPβ 216-253-Ala^217: C/EBPβ fragment 216-253 with Ala^217, lacking the activation and dimerization domains (KAVDKLSDEYKMRRERNNIAVRKSRDKAKMRNLETQHK; left off: small tags and cut ends)
Hepatic stellate cells
  Effect of expressed construct on apoptosis / survival of stellate cells: induced apoptosis

## C/EBPβ 216-253-Glu^217: C/EBPβ fragment 216-253 with Glu^217, lacking the activation and dimerization domains (KEVDKLSDEYKMRRERNNIAVRKSRDKAKMRNLETQHK; left off: small tags and cut ends)
Procaspase 8
  Co-immunoprecipitation of procaspase 8, fold more than the Ala^217 peptides: 12 fold
Procaspase 1
  Co-immunoprecipitation of procaspase 1, fold more than the Ala^217 peptides: 7 fold
Hepatic stellate cells
  Rescue from induced apoptosis by expressed construct: sufficient to rescue cells from apoptosis

B1: rC/EBPβ-Ala^105: modified rat C/EBPβ with mutation of Ser^105 to Ala (SEQ ID NO:14), nonphosphorylatable mutant (protein, listed as Rattus norvegicus)
chain: MHRLLAWDAACLPPPPAAFRPMEVANFYYEPDCLAYGAKAARAAPRAPAAEPAIGEHERAIDFSPYLEPLAPAAADFAAPAPAHHDFLSDLFADDYGAKPSKKPADYGYVSLGRAGAKAAPPACFPPPPPAALKAEPGFEPADCKRADDAPAMAAGFPFALRAYLGYQATPSGSSGSLSTSSSSSPPGTPSPADAKAAPAACFAGPPAAPAKAKAKKAVDKLSDEYKMRRERNNIAVRKSRDKAKMRNLETQHKVLELTAENERLQKKVEQLSRELSTLRNLFKQLPEPLLASAGHC
Hepatic stellate cells
  Effect of expressed construct on apoptosis / survival of stellate cells: induced apoptosis

B2: rC/EBPβ-Asp^105: modified rat C/EBPβ with mutation of Ser^105 to aspartic acid (SEQ ID NO:15), phosphorylation mimic (protein, listed as Rattus norvegicus)
chain: B1 chain with A105D
Hepatic stellate cells
  Rescue from induced apoptosis by expressed construct: rescued

B3: C/EBPβ-HA-Glu^217: purified recombinant HA (hemagglutinin) tagged C/EBPβ-Glu^217 peptide (protein)
chain: MHRLLAWDAACLPPPPAAFRPMEVANFYYEPDCLAYGAKAARAAPRAPAAEPAIGEHERAIDFSPYLEPLAPAADFAAPAPAHHDFLSDLFADDYGAKPSKKPADYGYVSLGRAGAKAAPPACFPPPPPAALKAEPGFEPADCKRADDAPAMAAGFPFALRAYLGYQATPSGSSGSLSTSSSSSPPGTPSPADAKAAPAACFAGPPAAPAKAKAKKEVDKLSDEYKMRRERNNIAVRKSRDKAKMRNLETQHKVLELTAENERLQKKVEQLSRELSTLRNLFKQLPEPLLASAGHC
modifications: left off: small tags and cut ends
notes: purified recombinant HA (hemagglutinin) tagged C/EBPβ-Glu^217 peptide
Procaspase 1
  Co-immunoprecipitation of procaspase 1, fold more than the Ala^217 peptides: about 7 fold
